The target of data set [1] is T1, Hsp90 (Saccharomyces cerevisiae, UniProt P02829).
T1 construct: made in house
The data set can be described thus: ITC, co-chaperone binding to Hsp90. Also noted: species or system yeast. (In general: ITC needs no label: the signal is the heat of the interaction.)
Description: (§1) The heat of interaction was measured on an ITC200 microcalorimeter (Microcal) under the same buffer conditions (20 mM Tris, pH 7.5, containing 5 mM NaCl), except for experiments using PP5, where we omitted EDTA and used 1 μM MnCl2. In experiments using nucleotide, we used 5 mM AMPPNP and 6 mM MgCl2. For experiments using Aha1 with AMPPNP the buffer contained 100 mM NaCl. Similarly, Sgt1 experiments also included 100 mM NaCl in the buffer. […] To assess co-chaperone binding to Hsp90 and Hsp90-LA1011 complex, we generally injected aliquots of co-chaperone at concentrations ranging from 200 to 400 μM into the microcell containing the Hsp90 or Hsp90-LA1011 complex at concentrations ranging from 20 to 30 μM of Hsp90 or Hsp90 in complex with 2 mM LA1011 at 30 °C. Heats of dilution were determined by diluting the injectant into the buffer. Data were fitted using a curve-fitting algorithm (Microcal Origin) either as a one-site binding event or as two independent binding sites as required.

The target of the next data set is T2, Hsp90-LA1011 (Saccharomyces cerevisiae, UniProt P02829).
T2 construct: made in house
Nature of the data set: ITC, co-chaperone binding to Hsp90-LA1011 complex. Also on record: species or system yeast.

In data set [2] the target is T1, Hsp90. The data set can be described thus: Lactate-dehydrogenase and pyruvate-kinase-linked Hsp90 ATPase assay. The data set is classed as biochemical, yeast. As to conditions: for effect of LA1011 on the co-chaperone directed regulation of Hsp90 ATPase activity: 2 μM Hsp90, 240 μM LA1011, co-chaperone 0.25 to 30 μM, normalized data compared with control lacking LA1011. Here is the method:
ATPase assays using 2 μM Hsp90 were conducted as previously described using the lactate-dehydrogenase and pyruvate-kinase-linked assay.[12] Briefly, 240 μM of LA1011 was used in assays as required. Co-chaperones were added to Hsp90 and Hsp90-LA1011 complex at a variety of concentrations ranging from 0.25 to 30 μM. Assays utilizing LA1011 were normalized by recalculating the activity for all data points so that the data points were converted to a percentage of the activity relative to the first data point, which lacked any addition of co-chaperone. The first data point was therefore 100% max Hsp90 activity. All assays were conducted at least in triplicate.
To assess the effect of LA1011 on the mechanistic action of co-chaperones, we used the lactate-dehydrogenase and pyruvate-kinase-linked Hsp90 ATPase assay. We first assessed the effect of each co-chaperone on Hsp90 ATPase activity and then compared its effect on a Hsp90-LA1011 complex.

Setting [3] is: ITC 30 °C, co-chaperone and Hsp90 without LA1011, one-site fit, read-out: Kd.
Where [4] appears, read: ITC 30 °C, Hsp90 in complex with 2 mM LA1011, one-site fit, read-out: Kd.

Several values for one entry are separate records, joined by “and”; a condition that tells them apart may be missing. Identical values can stand only once. Like-named read-outs stand apart in the source and are kept apart here.

T2 sequence (P02829 whole entry): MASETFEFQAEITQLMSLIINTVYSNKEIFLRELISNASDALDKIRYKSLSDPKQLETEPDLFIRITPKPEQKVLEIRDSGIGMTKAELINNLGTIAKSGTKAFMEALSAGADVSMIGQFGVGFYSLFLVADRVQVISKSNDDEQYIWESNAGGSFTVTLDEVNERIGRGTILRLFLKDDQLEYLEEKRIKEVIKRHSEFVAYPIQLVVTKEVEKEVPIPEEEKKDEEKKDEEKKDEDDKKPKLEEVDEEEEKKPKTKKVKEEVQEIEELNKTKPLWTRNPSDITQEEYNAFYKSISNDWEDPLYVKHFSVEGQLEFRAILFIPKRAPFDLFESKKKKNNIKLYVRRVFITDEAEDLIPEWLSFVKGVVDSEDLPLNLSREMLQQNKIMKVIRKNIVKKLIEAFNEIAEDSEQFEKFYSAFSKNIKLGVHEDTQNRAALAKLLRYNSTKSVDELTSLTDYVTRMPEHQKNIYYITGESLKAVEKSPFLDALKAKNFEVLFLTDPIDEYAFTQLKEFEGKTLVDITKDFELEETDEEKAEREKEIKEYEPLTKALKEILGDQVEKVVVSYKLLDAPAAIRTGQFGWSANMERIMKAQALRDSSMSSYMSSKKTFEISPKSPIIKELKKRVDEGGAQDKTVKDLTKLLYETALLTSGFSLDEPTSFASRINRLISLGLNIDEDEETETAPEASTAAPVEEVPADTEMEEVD
T1 sequence (P02829 whole entry): as above
Description for Hsp90-LA1011: as §1

B1: CHIP: mouse CHIP, Hsp90-dependent E3 ubiquitin ligase co-chaperone, dimeric (protein, UniProt Q9WUD1 1-304, looked up)
E3 ubiquitin-protein ligase …: MKGKEEKEGGARLGTGGGGSPDKSPSAQELKEQGNRLFVGRKYPEAAACYGRAITRNPLVAVYYTNRALCYLKMQQPEQALADCRRALELDGQSVKAHFFLGQCQLEMESYDEAIANLQRAYSLAKEQRLNFGDDIPSALRIAKKKRWNSIEERRIHQESELHSYLTRLIAAERERELEECQRNHEGHEDDGHIRAQQACIEAKHDKYMADMDELFSQVDEKRKKRDIPDYLCGKISFELMREPCITPSGITYDRKDIEEHLQRVGHFDPVTRSPLTQEQLIPNLAMKEVIDAFISENGWVEDY
The Kd is the concentration at which binding is half-saturated. Turning to B1, the Kd amounted to 80 nM in the data set with Hsp90 [1] (setting [3]) and 1440 nM in the data set with Hsp90-LA1011 (setting [4]). Also, in the data set with Hsp90 [2] (2 μM Hsp90), the “effect on Hsp90 ATPase activity” value is “inhibitor of the ATPase activity of Hsp90”. Further, the “effect of LA1011 on the co-chaperone directed regulation of Hsp90 ATPase activity” value (from here on “effect of LA1011”) with Hsp90 [2] is reported as “LA1011 affects CHIP’s ability to inhibit Hsp90 ATPase activity”.

B2: Sgt1: yeast Sgt1 (amino acid residues 1-280), Hsp90 co-chaperone (protein, UniProt Q08446 1-280, looked up, fragment)
chain: MPVEKDLKTAYKALYDEKEPLKALHLYDEILKGSPTNLTALIFKAACLEKLYFGFSDWHSDATMENAKELLDKALMTAEGRGDRSKIGLVNFRYFVHFFNIKDYELAQSYFKKAKNLGYVDDTLPLWEDRLETKLNKKNKKQKDSTNKHTIKPVESIENRGDNNSSHSPISPLKIETAPQESPKFKIDWYQSSTSVTISLFTVNLPESKEQVNIYISPNDRRTLSISYQVPKSGSEFQYNAKLSHEVDPKAVSLKIFPKKLEITLSKIDSTQWKKLEEDI
B2: the dissociation constant Kd in the data set with Hsp90 [1] (setting [3]) is 16200 nM; with Hsp90-LA1011 (setting [4]) it was 13600 nM. The “effect of LA1011” value with Hsp90 [2] is recorded as “unaffected by the presence of LA1011”.

B3: FKBP52: Hsp90 co-chaperone, TPR domain-containing protein (protein, UniProt Q02790 1-459, looked up)
Peptidyl-prolyl cis-trans …: MTAEEMKATESGAQSAPLPMEGVDISPKQDEGVLKVIKREGTGTEMPMIGDRVFVHYTGWLLDGTKFDSSLDRKDKFSFDLGKGEVIKAWDIAIATMKVGEVCHITCKPEYAYGSAGSPPKIPPNATLVFEVELFEFKGEDLTEEEDGGIIRRIQTRGEGYAKPNEGAIVEVALEGYYKDKLFDQRELRFEIGEGENLDLPYGLERAIQRMEKGEHSIVYLKPSYAFGSVGKEKFQIPPNAELKYELHLKSFEKAKESWEMNSEEKLEQSTIVKERGTVYFKEGKYKQALLQYKKIVSWLEYESSFSNEEAQKAQALRLASHLNLAMCHLKLQAFSAAIESCNKALELDSNNEKGLFRRGEAHLAVNDFELARADFQKVLQLYPNNKAAKTQLAVCQQRIRRQLAREKKLYANMFERLAEEENKAKAEASSGDHPTDTEMKEEQKSNTAGSQSQVETEA
Take B3: the Kd is around 620 nM with Hsp90 [1] (ITC, Hsp90 without LA1011, two-site fit, value listed first in Table 2 and figures, read-out: Kd (two-site fit, first value listed)); ~620 nM and 620 nM with Hsp90 [1] (ITC, Hsp90 without LA1011, two-site fit, value listed second in Table 2 and figures, read-out: Kd (two-site fit, second value listed)); 2800 nM with Hsp90-LA1011 (ITC, Hsp90 with 2 mM LA1011, two-site fit, value listed first in Table 2 and figures, read-out: Kd (two-site fit, first value listed)); ~200 nM and 200 nM in the data set with Hsp90-LA1011 (ITC, Hsp90 with 2 mM LA1011, two-site fit, value listed second in Table 2 and figures, read-out: Kd (two-site fit, second value listed)).

B4: TPR domain of PP5: PP5-TPR domain (amino acid residues 1-177) (protein, UniProt P53041 1-177, looked up, fragment)
chain: MAMAEGERTECAEPPRDEPPADGALKRAEELKTQANDYFKAKDYENAIKFYSQAIELNPSNAIYYGNRSLAYLRTECYGYALGDATRAIELDKKYIKGYYRRAASNMALGKFRAALRDYETVVKVKPHDKDAKMKYQECNKIVKQKAFERAIAGDEHKRSVVDSLDIESMTIEDEYS
modifications: TPR domain
As to B4, the “effect of LA1011” value with Hsp90 [2] is reported as “small but significant effect”.

The record behind these values is paper PMC12757481, “The dihydropyridine LA1011 modulates multiple Hsp90—co-chaperone interactions relevant to Alzheimer’s disease” (Cell Stress & Chaperones, 2025).
